Measurements as given in patent US20210403549A1 (YALE UNIVERSITY, published 2021).
One block for each binder: values may come before it. fluorescein = fluorescein (fluorescent label)

Key:
[1] = target: T1, ALK1-fragment crystallizable region (Fc), wild type ALK1 ectodomain (human, UniProt P37023 22-118); experiment: substitution analysis of the 15mer peptide
T1 construct: also called ALK1-Fc; ALK1^ecto-Fc; not shown: Fc tag
Text: FIG. 7 depicts structure function analysis of Site 1. Site 1 was interrogated as a major N-terminal binding site for ALK1 on ApoB 100.

[2] = target: T2, low density lipoprotein (LDL) (UniProt P04114 28-4563); experiment: SPR, LDL immobilized, Fc-tagged ectodomain as analyte; LDLR ectodomain as analyte
T2 construct: Lipoprotein particle, not a pure protein; also called DiI-LDL (fluorescently labeled)
T2 sequence (P04114 28-4563 limits assumed): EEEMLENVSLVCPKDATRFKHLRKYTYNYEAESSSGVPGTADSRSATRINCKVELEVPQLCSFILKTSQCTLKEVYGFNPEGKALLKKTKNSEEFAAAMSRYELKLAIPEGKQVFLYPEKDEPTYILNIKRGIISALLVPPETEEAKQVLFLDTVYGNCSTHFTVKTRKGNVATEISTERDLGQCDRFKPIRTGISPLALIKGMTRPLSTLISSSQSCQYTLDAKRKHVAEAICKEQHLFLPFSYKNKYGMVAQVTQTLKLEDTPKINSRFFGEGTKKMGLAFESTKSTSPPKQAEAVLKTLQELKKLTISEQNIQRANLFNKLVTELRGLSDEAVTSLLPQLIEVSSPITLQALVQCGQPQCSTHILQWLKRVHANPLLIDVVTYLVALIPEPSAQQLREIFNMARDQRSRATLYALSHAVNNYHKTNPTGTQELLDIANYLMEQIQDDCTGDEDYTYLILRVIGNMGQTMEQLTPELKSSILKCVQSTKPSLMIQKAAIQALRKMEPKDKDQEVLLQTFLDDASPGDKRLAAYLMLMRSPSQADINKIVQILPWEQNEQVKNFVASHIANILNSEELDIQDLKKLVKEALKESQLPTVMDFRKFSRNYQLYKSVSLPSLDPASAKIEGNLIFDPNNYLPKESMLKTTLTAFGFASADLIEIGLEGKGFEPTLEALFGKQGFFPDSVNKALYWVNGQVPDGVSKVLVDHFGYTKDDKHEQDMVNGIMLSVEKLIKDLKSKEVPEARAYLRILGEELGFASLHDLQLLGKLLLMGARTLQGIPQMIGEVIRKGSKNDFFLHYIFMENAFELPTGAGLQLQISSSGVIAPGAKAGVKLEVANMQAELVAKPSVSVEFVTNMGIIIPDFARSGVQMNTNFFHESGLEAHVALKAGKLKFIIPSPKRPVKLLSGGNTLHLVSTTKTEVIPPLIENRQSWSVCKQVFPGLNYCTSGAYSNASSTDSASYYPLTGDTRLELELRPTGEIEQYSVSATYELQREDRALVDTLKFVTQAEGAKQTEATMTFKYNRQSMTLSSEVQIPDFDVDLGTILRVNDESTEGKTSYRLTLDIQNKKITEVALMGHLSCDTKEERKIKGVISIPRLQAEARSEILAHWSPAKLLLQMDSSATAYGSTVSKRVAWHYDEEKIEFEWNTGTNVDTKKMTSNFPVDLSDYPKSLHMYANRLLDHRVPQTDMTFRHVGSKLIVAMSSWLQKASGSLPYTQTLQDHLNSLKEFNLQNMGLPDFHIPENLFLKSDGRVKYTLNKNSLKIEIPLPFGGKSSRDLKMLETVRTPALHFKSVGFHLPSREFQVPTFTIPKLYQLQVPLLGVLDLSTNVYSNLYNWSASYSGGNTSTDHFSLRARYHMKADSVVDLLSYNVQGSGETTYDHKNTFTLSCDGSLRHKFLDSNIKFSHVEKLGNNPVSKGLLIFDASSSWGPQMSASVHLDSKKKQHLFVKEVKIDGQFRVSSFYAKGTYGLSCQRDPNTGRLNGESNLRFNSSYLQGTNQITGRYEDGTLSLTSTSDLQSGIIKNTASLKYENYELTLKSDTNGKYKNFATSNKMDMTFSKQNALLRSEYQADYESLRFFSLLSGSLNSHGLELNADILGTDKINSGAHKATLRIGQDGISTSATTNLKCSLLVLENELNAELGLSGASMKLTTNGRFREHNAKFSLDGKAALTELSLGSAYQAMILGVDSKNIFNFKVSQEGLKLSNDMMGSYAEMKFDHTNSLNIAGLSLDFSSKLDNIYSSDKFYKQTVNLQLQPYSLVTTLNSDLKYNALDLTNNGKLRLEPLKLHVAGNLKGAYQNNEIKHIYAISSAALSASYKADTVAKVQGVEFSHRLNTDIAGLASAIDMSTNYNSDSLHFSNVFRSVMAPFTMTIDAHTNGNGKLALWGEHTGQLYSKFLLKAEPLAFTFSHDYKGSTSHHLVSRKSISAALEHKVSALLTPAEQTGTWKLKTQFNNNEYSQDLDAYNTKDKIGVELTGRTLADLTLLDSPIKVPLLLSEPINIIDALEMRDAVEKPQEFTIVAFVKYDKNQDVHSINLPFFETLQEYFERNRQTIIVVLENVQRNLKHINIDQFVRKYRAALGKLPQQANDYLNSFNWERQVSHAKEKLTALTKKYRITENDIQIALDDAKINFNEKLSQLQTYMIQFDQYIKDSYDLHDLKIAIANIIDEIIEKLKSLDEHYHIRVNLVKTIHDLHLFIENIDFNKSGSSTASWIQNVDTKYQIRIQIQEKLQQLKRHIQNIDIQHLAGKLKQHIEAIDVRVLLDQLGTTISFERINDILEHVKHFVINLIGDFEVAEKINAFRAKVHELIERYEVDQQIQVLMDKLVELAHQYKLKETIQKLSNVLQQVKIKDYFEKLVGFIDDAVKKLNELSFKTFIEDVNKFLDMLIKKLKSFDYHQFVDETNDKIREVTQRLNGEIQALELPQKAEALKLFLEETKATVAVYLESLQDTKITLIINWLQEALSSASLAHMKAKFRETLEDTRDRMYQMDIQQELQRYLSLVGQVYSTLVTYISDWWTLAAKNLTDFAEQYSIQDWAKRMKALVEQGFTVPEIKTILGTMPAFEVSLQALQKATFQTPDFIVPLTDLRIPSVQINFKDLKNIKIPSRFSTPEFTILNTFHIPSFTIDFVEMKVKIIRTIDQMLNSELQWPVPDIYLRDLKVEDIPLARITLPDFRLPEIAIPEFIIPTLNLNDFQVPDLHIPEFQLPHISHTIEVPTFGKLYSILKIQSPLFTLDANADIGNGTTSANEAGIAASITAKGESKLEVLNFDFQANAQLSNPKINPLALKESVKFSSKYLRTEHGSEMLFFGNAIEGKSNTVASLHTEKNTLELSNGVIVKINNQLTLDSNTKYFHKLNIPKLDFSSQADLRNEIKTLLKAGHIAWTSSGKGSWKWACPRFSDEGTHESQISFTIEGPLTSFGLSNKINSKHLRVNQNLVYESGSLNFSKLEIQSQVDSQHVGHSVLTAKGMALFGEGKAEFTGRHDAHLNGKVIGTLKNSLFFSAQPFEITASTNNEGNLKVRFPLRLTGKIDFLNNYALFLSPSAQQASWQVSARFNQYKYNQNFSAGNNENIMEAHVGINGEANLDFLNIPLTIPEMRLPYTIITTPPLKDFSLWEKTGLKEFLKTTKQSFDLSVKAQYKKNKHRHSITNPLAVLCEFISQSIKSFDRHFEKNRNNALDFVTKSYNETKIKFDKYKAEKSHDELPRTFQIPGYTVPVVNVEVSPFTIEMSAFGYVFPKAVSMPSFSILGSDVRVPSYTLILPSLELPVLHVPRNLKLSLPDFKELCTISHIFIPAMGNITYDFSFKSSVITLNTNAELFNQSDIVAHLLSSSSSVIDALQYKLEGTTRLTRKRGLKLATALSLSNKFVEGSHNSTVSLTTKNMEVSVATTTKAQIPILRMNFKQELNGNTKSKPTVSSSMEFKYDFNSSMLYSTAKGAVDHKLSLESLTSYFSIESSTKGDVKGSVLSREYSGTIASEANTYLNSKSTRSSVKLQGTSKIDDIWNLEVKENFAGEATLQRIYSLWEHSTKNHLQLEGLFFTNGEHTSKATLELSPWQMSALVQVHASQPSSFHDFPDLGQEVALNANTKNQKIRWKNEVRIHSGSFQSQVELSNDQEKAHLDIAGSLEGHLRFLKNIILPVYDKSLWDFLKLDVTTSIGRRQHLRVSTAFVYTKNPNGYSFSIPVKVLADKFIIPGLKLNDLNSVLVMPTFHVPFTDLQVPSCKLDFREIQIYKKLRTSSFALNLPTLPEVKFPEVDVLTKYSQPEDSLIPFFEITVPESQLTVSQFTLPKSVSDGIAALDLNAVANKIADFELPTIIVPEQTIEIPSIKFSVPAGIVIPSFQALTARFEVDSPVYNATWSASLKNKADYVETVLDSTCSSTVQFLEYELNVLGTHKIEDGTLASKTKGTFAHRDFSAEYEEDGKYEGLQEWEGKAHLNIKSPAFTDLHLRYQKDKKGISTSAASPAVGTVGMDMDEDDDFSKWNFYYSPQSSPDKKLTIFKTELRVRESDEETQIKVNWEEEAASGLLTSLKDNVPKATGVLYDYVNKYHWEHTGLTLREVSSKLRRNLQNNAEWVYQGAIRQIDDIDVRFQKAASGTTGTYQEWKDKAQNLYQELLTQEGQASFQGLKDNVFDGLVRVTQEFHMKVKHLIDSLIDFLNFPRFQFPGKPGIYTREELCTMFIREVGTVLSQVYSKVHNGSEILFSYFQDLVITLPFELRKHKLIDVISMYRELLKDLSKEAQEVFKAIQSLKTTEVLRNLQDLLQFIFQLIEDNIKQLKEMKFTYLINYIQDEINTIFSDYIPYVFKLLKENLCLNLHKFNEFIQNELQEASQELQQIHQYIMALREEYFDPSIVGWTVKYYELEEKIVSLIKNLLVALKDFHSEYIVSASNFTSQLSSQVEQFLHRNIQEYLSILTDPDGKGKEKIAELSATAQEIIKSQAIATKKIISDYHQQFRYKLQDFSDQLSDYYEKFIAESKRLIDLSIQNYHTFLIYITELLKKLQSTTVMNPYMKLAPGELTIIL
Text: To directly examine protein-protein interactions between LDL and ALK1, surface plasmon resonance (SPR) was used with LDL immobilized to the chip and purified fragments of the Fc-tagged ectodomains for LDLR and ALK1 as analytes. […] To test if LDLR and ALK1 compete for binding to LDL, immobilized LDL was pre-bound with ALK1 or LDLR ectodomains, followed by the addition of the other ectodomain. The binding of […] was not altered when the LDL surface was pretreated with ALK1^ecto (FIG. 2C) or if LDL was pretreated with LDLR^ecto (FIG. 2D).

[3] = target: T1, ALK1-fragment crystallizable region …; experiment: ApoB100 peptide array, fluorescence
Protocol: FIG. 6 depicts mapping of ALK1 binding to ApoB100- In order to identify binding sites that mediate the interaction of ALK1 with the core LDL protein, Apo B100, peptide mapping experiments were performed. 4,563 different peptides (15 AA in length overlapped by 14AA) derived from the human ApoB100 sequence were arrayed and incubated with a control-Fc, and ALK1-Fc and binding events measurement by fluorescence. […] The AA sequence of binding for site 1 is SEQ ID NO: 4 QDDCTGDED, site 4 is SEQ ID NO: 5 […] and site 5 is SEQ ID NO: 6 HRDFSAEYEED.

[4] = target: T1, ALK1-fragment crystallizable region …; experiment: fluorescence polarization (Fp), recombinant ALK1-Fc and fluorescein labelled peptide
Text: FIG. 8 depicts development of a fluorescence polarization (Fp) assay of ALK1 binding to ApoB100 peptide Site 1. In order to measure binding affinities of ApoB100 to ALK1 and to facilitate screening molecules that block this interaction, a Fp assay was developed using recombinant ALK1-Fc and an HPLC purified fluorescein labelled peptide, -SEQ ID NO: 8 […] with G being an N-terminal linker to fluorescein and the C-terminal L amidated.

T1 sequence (P37023 22-118): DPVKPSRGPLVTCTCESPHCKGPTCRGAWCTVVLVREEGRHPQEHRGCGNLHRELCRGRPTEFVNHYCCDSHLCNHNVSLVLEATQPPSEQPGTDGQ

Kd [4]: 2450 nM
B2: fluorescein labelled ApoB100 peptide Site 1, GQDDCTGDEDYTYLIL (peptide)
peptide: fluorescein-GQDDCTGDEDYTYLIL-NH2
notes: also called HPLC purified fluorescein labelled peptide

binding result [3]: binds
Binder: QDDCTGDED (also called QDDCTGDED) [ApoB100 Site 1]

binding result [3]: binds
Binder: HRDFSAEYEED (also called HRDFSAEYEED) [ApoB100 Site 5]

The remaining lines, values behind:

Binder: EQIQDDCTGDEDYTY [ApoB100 Site 1 15mer peptide EQIQDDCTGDEDYTY]
binding result [1]: binds

B1: Fc-tagged ectodomain of LDLR (Fc fusion, not shown: a dimerising Fc or GST)
chain: not shown
notes: extracellular domain; also called LDLR^ecto
Kd [2]: 7 nM

Binder: RKRGLKLAT [ApoB100 Site 4]
binding result [3]: binds
